Numbered stars: 1 amine (or outer) side, 2 acyl side, 3 side chain; on linkers, the order of the positions; unused ones are H or OH. Bridge positions count the residues as written; N and C are the ends. Square brackets hold non-standard residues; d marks the D form. Ends that are not written are not given here. Peptide text beside a SMILES is read from it. * marks the point of attachment. X1 = NC(N)=NCCNC(=O)CCOCC(COCCC(=O)NCCN=C(N)N)(COCCC(=O)NCCN=C(N)N)NC(=O)CON=C(C[*:1])C[*:2]; FITC = O=C1OC2(c3ccc(O)cc3Oc3cc(O)ccc32)c2ccc(NC(=S)*)cc21; Ahx = NCCCCCC(=O)O
System: HeLa cells
Assay: Evaluation of cell-membrane permeability (flow cytometry of FITC-labelled peptide complexes)
Assay type: cell-based, Human
Settings: for Mode of fluorescence intensity, 0 hour of culture / Mode of fluorescence intensity, 1 hour of culture: 2 μM peptide complex, flow cytometer; for Mode of fluorescence intensity, 0 hour of culture: living (propidium iodide-negative) cells; for Mode of fluorescence intensity, 1 hour of culture: 37° C., 5% CO2, living (propidium iodide-negative) cells; for Level of cell-membrane permeation compared with Comparative Example 1: at 1 hour of culture, versus peptide complex of Comparative Example 1
Method: HeLa cells (Human cervix adenocarcinoma cells) were cultured for 1 hour in a cell culture containing 2 μM of the peptide complex synthesized in Example 1 or 2 or Comparative Example 1 under conditions of 5% (v/v) CO2 and 37° C. For culturing the HeLa cells, FluoroBrite D-MEM (obtained from ThermoFisher Co.) (supplemented with 10% (v/v) FCS (fetal calf serum) and 10% (v/v) GlutaMax (obtained from ThermoFisher Co.)) was used.
Next, the surfaces of the cells were washed with D-PBS (−) (supplemented with heparin (20 units/mL)), followed by recovery of the cells. The cells were suspended in D-PBS(−) (supplemented with 0.5% (v/v) BSA (bovine serum albumin), 200 mM EDTA (ethylenediaminetetraacetic acid), and 0.2% (v/v) propidium iodide (obtained from Sigma-Aldrich Co.)). A flow cytometer (BD FACS AriaIII) was used to measure fluorescence intensity. Upon flow cytometry analysis, the mode of fluorescence intensity was calculated for a population of living cells excluding dead cells that were propidium iodide-positive. As a control, dimethyl sulfoxide (DMSO) not containing the peptide complex was tested in the same manner.

Compound	Mode of fluorescence intensity, 0 hour of culture	Mode of fluorescence intensity, 1 hour of culture	Level of cell-membrane permeation compared with Comparative Example 1
CC[C@H](C)[C@@H]1NC(=O)[C@H](Cc2ccc(O)cc2)NC(=O)[C@H](CC(C)C)NC(=O)[C@H](CCSC)NC(=O)[C@@H](NC(=O)CCCCCNC(=S)Nc2ccc3c(c2)C(=O)OC32c3ccc(O)cc3Oc3cc(O)ccc32)CSCC(=NOCC(=O)NC(COCCC(=O)NCCN=C(N)N)(COCCC(=O)NCCN=C(N)N)COCCC(=O)NCCN=C(N)N)CSC[C@@H](C(N)=O)NC(=O)CNC(=O)[C@H](C(C)C)NC(=O)[C@H](CO)NC(=O)[C@H](Cc2ccccc2)NC(=O)[C@H](Cc2ccc(O)cc2)NC(=O)[C@@H]2CCCN2C(=O)[C@H](C(C)C)NC1=O [Comparative Example 1, reference compound] ({FITC-Ahx}-CMLYIVPYFSVGC-NH2; linker 1-13 via X1)	66.6	412	–
Example 2: FITC-labelled cyclic peptide CMLYIVPYFSVGC with cell-membrane-permeability-imparting group G9 (three dendritic units, nine guanidino groups) bound by oxime ligation (not fully specified (N-terminus, C-terminus, bridges); also: cyclic, mode not given here, FITC label, place not given here, G9 guanidino dendron bound by oxime ligation, place not given here)	65.8	877	higher levels of cell-membrane permeation
Example 1: FITC-labelled cyclic peptide CMLYIVPYFSVGC with cell-membrane-permeability-imparting group G6 (two dendritic units, six guanidino groups) bound by oxime ligation ([Ahx]CMLYIVPYFSVGC-NH2; not fully specified (bridges); numbers in words are those of the source; also: cyclic, mode not given here, FITC label, place not given here, G6 guanidino dendron bound by oxime ligation, place not given here)	60	730	higher levels of cell-membrane permeation

Source: patent US20220162259A1, “PEPTIDE COMPLEX AND PRODUCTION METHOD THEREFOR, AND USE OF SAID PEPTIDE COMPLEX” (KANEKA CORPORATION, priority 2019, published 2022)
